Source: patent CN117603358A

What was measured:
[1] = molecular target: S蛋白, SARS-CoV-2 BA.1 (SARS-CoV-2 BA.1); assay: cell-based or functional assay
[2] = molecular target: S蛋白, SARS-CoV-2 BA.2.75 (SARS-CoV-2 BA.2.75); assay: cell-based or functional assay
[3] = molecular target: S蛋白, SARS-CoV-2 BA.4/5 (SARS-CoV-2 BA.4/5); assay: cell-based or functional assay
[4] = molecular target: S蛋白, SARS-CoV-2 BF.7 (SARS-CoV-2 BF.7); assay: cell-based or functional assay
[5] = molecular target: S蛋白, SARS-CoV-2 BQ.1 (SARS-CoV-2 BQ.1); assay: cell-based or functional assay
[6] = molecular target: S蛋白, SARS-CoV-2 BQ.1.1 (SARS-CoV-2 BQ.1.1); assay: cell-based or functional assay
[7] = molecular target: S蛋白, SARS-CoV-2 Delta (SARS-CoV-2 Delta); assay: cell-based or functional assay
[8] = molecular target: S蛋白, SARS-CoV-2 XBB (SARS-CoV-2 XBB); assay: cell-based or functional assay
[9] = molecular target: S蛋白, SARS-CoV-2 XBB.1.5 (SARS-CoV-2 XBB.1.5); assay: cell-based or functional assay
[10] = molecular target: SARS-CoV-2(BA.5) Spike RBD (SARS-CoV-2 BA.5); assay: SPR (Biacore 8K), antibody captured on Protein A chip, RBD as analyte
[11] = molecular target: SARS-CoV-2(BF.7) Spike RBD (SARS-CoV-2 BF.7); assay: as above

Substance: LY-CoV1404 (antibody)
- 假病毒中和活性 IC50 [1]: 1.44 ng/mL
- 假病毒中和活性 IC50 [2]: 25.1 ng/mL
- 假病毒中和活性 IC50 [3]: 1.22 ng/mL
- 假病毒中和活性 IC50 [4]: 2.14 ng/mL
- 假病毒中和活性 IC50 [5]: > 2000 ng/mL
- 假病毒中和活性 IC50 [6]: > 2000 ng/mL
- 假病毒中和活性 IC50 [7]: 3.05 ng/mL
- 假病毒中和活性 IC50 [8]: > 2000 ng/mL
- 假病毒中和活性 IC50 [9]: > 2000 ng/mL
- Kd [10]: 0.184 nM
- Kd [11]: 0.162 nM
